Reference: patent US20220177596A1 (Bristol-Myers Squibb, published 2022)
Where two headings read alike, the source gives them in different places.

T1: hCD32b-His (human, UniProt P31994 43-217)
T1 construct: Generated in house; captured on anti-His Fab; also called FcgRIIb
T1 sequence: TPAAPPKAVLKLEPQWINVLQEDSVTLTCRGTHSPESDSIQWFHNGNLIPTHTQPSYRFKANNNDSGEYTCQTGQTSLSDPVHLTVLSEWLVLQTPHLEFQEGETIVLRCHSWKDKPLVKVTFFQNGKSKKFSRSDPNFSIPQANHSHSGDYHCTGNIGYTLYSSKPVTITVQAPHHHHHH

T2: hCD32a-R131-His (human, UniProt P12318 34-217)
T2 construct: Generated in house; captured on anti-His Fab; Allele R131 as printed; the database entry may carry H at that position; also called FcgRIIa-R131
T2 sequence: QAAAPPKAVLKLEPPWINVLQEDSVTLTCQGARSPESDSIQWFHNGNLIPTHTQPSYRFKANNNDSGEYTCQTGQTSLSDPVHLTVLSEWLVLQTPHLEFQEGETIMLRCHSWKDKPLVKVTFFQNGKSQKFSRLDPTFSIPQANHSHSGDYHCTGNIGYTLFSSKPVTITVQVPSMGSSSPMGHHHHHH

T3: hCD32a-H131-His (human, UniProt P12318 34-217)
T3 construct: Generated in house; captured on anti-His Fab; also called FcgRIIa-H131
T3 sequence: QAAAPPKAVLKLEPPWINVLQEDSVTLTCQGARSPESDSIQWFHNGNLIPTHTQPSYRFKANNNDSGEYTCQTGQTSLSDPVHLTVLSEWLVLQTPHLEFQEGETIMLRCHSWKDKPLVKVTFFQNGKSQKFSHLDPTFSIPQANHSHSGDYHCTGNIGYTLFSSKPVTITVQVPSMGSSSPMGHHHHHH


Key:
hCD64-His [1] = molecular target: T4, hCD64-His (human, UniProt P12314 16-288, limits assumed); experiment: SPR (BIAcore): 7 µg/ml hCD64-His captured on an anti-His Fab surface, 1 µM antibody as analyte
T4 construct: Generated in house; captured on anti-His Fab; also called hFcgRI; FcgRI
Experimental: (§1) FCGR BINDING SPR: FcgR binding can be measured in vitro using purified FcgRs using methods such as BIAcore™ surface plasmon resonance (SPR). One method tests the binding of purified antibodies to His-tagged FcgR proteins (FcgR-His) which are captured on the immobilized Fab fragment of an anti-His antibody. These experiments are performed on either a BIAcore™ T100 or BIAcore™ T200 instrument (GE Healthcare Life Sciences, Marlborough, Mass.) at 25° C. The Fab fragment from a murine anti-6×His antibody (generated in house) is immobilized on a CMS sensor chip using standard ethyl(dimethylaminopropyl) carbodiimide (EDC)/N-hydroxysuccinimide (NHS) chemistry with ethanolamine blocking, to a density of ˜3000 RU in a running buffer of 10 mM HEPES pH 7.4, 150 mM NaCl, 3 mM EDTA, 0.05% surfactant p20 (HBS-EP+). All remaining studies are performed using a running buffer of 10 mM NaPO4, 130 mM NaCl, 0.05% p20 (PBS-T) pH 7.1. Various FcγR proteins containing a C-terminal 6× poly-histidine tag (generated in house) are captured on this surface (typically using FcgR-his protein concentration of ˜7 μg/ml) using a contact time of 30 sec at 10 μl/min. Various concentrations of purified antibody are tested for binding, for example using an association time of 120 seconds at 30 μl/min, and a dissociation time of 120 seconds at 30 μl/min. FcgR proteins tested in these studies include the “high affinity” FcgR CD64 (hFcgRI), as well as the “low affinity” FcgRs CD32a-H131 (FcgRIIa-H131), CD32a-R131 (FcgRIIa-R131), CD32b (FcgRIIb), CD16a-V158 (FcgRIIIa-V158), and CD16b-NA2 (FcgRIIIb-NA2).

human-CD40 monomer [2] = molecular target: T5, human-CD40 monomer (human, UniProt P25942 21-193, limits assumed); experiment: SPR, Ab captured on protein A, CD40 monomer analyte
T5 construct: also called hCD40-monomer; human-CD40-monomer protein

hCD32b-His = molecular target: T1, hCD32b-His; experiment: SPR
Experimental: as §1

hCD32a-R131-His = molecular target: T2, hCD32a-R131-His; experiment: SPR
Experimental: as §1

hCD16a-V158-His = molecular target: T6, hCD16a-V158-His (human, UniProt P08637 17-208); experiment: SPR
T6 construct: Generated in house; captured on anti-His Fab; Allele V158 as printed; the database entry may carry F at that position; also called FcgRIIIa-V158
Experimental: as §1

hCD32a-H131-His = molecular target: T3, hCD32a-H131-His; experiment: SPR
Experimental: as §1

[3] = molecular target: human CD40 on primary human cells (tonsillar B cells, immature dendritic cells) (human, UniProt P25942 21-277); experiment: cell-based or functional assay
human-CD40 monomer [4] = molecular target: T5, human-CD40 monomer; experiment: SPR, Ab captured on protein A, CD40 monomer analyte; remark: listed apart in the source
Experimental: These chimeric antibodies were tested for CD40 and FcgR binding by SPR, as well as for iDC activation.

hCD64-His [5] = molecular target: T4, hCD64-His; experiment: SPR
Experimental: as §1

T4 sequence (P12314 other isoform, or with tags, fused parts or gaps limits assumed): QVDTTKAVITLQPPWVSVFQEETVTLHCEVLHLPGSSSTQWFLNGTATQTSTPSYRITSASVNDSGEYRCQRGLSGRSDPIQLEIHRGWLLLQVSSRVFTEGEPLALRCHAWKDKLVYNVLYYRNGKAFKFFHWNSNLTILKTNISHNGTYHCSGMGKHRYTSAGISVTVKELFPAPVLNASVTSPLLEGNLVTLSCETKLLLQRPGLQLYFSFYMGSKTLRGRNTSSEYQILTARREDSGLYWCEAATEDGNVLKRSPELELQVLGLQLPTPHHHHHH
T5 sequence (P25942 21-193 limits assumed): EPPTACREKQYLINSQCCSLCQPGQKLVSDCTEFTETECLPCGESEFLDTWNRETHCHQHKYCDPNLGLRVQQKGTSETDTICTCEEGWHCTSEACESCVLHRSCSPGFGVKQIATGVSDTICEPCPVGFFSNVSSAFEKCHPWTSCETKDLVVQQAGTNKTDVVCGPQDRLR
human CD40 on primary human cells (tonsillar B cells, immature dendritic cells), sequence (P25942 21-277 limits assumed): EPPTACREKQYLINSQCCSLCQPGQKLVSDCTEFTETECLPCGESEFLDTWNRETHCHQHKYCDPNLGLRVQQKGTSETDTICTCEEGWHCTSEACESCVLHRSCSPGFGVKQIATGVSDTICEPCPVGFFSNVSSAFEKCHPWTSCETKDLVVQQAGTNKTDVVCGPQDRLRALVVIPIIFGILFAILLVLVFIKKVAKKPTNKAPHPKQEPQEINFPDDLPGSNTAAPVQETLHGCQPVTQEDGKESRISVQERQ
T6 sequence (P08637 other isoform, or with tags, fused parts or gaps limits assumed): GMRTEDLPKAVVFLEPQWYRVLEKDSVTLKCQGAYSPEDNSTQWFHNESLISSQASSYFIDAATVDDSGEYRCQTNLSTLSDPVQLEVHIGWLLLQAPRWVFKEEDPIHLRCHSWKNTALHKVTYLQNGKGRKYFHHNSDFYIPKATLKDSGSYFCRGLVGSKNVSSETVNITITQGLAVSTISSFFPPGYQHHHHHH

Row | Binder | binding result (hCD64-His [1]) | Kd (human-CD40 monomer [2]) [nM] | koff (human-CD40 monomer [2]) [s⁻¹] | kon (human-CD40 monomer [2]) [M⁻¹ s⁻¹] | binding result (hCD32b-His) | binding result (hCD32a-R131-His) | binding result (hCD16a-V158-His) | binding result (hCD32a-H131-His) | IC50 for inhibition of proliferation of B cells, CD40L Trimer [3] [ng/mL] | Kd (human-CD40 monomer [4]) [nM] | koff (human-CD40 monomer [4]) [s⁻¹] | kon (human-CD40 monomer [4]) [M⁻¹ s⁻¹] | IC50 for inhibition of proliferation of B cells, CHO CD40L [3] [ng/mL] | binding result (hCD64-His [5])
1 | 5F11-45-IgG1f (antibody, Humanized anti-CD40, wild type human IgG1f) heavy: not shown light: DIVLTQSPDSLAVSLGERATINCRASKNVDSYGNSFMHWYQQKPGQPPKLLIYRASNLESGVPDRFSGSGSGTDFTLTISSLQAEDVAVYYCQQSNEDPLTFGQGTKLEIKRTVAAPSVFIFPPSDEQLKSGTASVVCLLNNFYPREAKVQWKVDNALQSGNSQESVTEQDSKDSTYSLSSTLTLSKADYEKHKVYACEVTHQGLSSPVTKSFNRGEC | binds | 6.7 | 0.00046 | 69000 | binds | binds | binds | binds |  |  |  |  |  | 
2 | 5F11-45-CTza (antibody, human IgG1, kappa) heavy: not shown light: DIVLTQSPDSLAVSLGERATINCRASKNVDSYGNSFMHWYQQKPGQPPKLLIYRASNLESGVPDRFSGSGSGTDFTLTISSLQAEDVAVYYCQQSNEDPLTFGQGTKLEIKRTVAAPSVFIFPPSDEQLKSGTASVVCLLNNFYPREAKVQWKVDNALQSGNSQESVTEQDSKDSTYSLSSTLTLSKADYEKHKVYACEVTHQGLSSPVTKSFNRGEC | binds | 1.6 | 0.00014 | 88000 |  |  |  |  |  |  |  |  |  | 
3 | 5F11-45-N297A (antibody, human IgG1, kappa, N297A) heavy: not shown light: DIVLTQSPDSLAVSLGERATINCRASKNVDSYGNSFMHWYQQKPGQPPKLLIYRASNLESGVPDRFSGSGSGTDFTLTISSLQAEDVAVYYCQQSNEDPLTFGQGTKLEIKRTVAAPSVFIFPPSDEQLKSGTASVVCLLNNFYPREAKVQWKVDNALQSGNSQESVTEQDSKDSTYSLSSTLTLSKADYEKHKVYACEVTHQGLSSPVTKSFNRGEC | binds | 2.8 | 0.00022 | 80000 |  |  |  |  |  |  |  |  |  | 
4 | Y1238-P238K (antibody, human IgG1, kappa, Chimeric; also called chimeric Y1238-P238K) heavy: not shown light: DIVMTQSHKFMSTSVGDRVSITCKASQDVRTGVAWYQQKPGQSPKLLIYSASYRNTGVPDRFTGSRSGTDFTFTISSVQAEDLAVYYCQQHYSPPYTFGGGTKLEIKRTVAAPSVFIFPPSDEQLKSGTASVVCLLNNFYPREAKVQWKVDNALQSGNSQESVTEQDSKDSTYSLSSTLTLSKADYEKHKVYACEVTHQGLSSPVTKSFNRGEC |  |  |  |  |  |  |  |  | 3.4 | 2.6 | 0.00026 | 97000 | 18.4 | binds
5 | Y1238-N297A (antibody, human IgG1, kappa, N297A, Chimeric; also called chimeric Y1238-N297A) heavy: not shown light: DIVMTQSHKFMSTSVGDRVSITCKASQDVRTGVAWYQQKPGQSPKLLIYSASYRNTGVPDRFTGSRSGTDFTFTISSVQAEDLAVYYCQQHYSPPYTFGGGTKLEIKRTVAAPSVFIFPPSDEQLKSGTASVVCLLNNFYPREAKVQWKVDNALQSGNSQESVTEQDSKDSTYSLSSTLTLSKADYEKHKVYACEVTHQGLSSPVTKSFNRGEC |  |  |  |  |  |  |  |  | 3.6 | 2.5 | 0.00024 | 97000 | 17 | binds

The next lines start with the values.

Row | binding result (hCD64-His [1]) | Kd (human-CD40 monomer [2]) [nM] | koff (human-CD40 monomer [2]) [s⁻¹] | kon (human-CD40 monomer [2]) [M⁻¹ s⁻¹] | binding result (hCD32b-His) | binding result (hCD32a-R131-His) | binding result (hCD16a-V158-His) | binding result (hCD32a-H131-His) | IC50 for inhibition of proliferation of B cells, CD40L Trimer [3] [ng/mL] | Kd (human-CD40 monomer [4]) [nM] | koff (human-CD40 monomer [4]) [s⁻¹] | kon (human-CD40 monomer [4]) [M⁻¹ s⁻¹] | IC50 for inhibition of proliferation of B cells, CHO CD40L [3] [ng/mL] | binding result (hCD64-His [5]) | Binder
6 | binds | 3.3 | 0.00027 | 79000 |  |  |  |  | 10 |  |  |  |  |  | 5F11-45-P238K (antibody, human IgG1, kappa) heavy: not shown light: DIVLTQSPDSLAVSLGERATINCRASKNVDSYGNSFMHWYQQKPGQPPKLLIYRASNLESGVPDRFSGSGSGTDFTLTISSLQAEDVAVYYCQQSNEDPLTFGQGTKLEIKRTVAAPSVFIFPPSDEQLKSGTASVVCLLNNFYPREAKVQWKVDNALQSGNSQESVTEQDSKDSTYSLSSTLTLSKADYEKHKVYACEVTHQGLSSPVTKSFNRGEC
7 |  | 3.9 | 0.0003 | 79000 | binds |  |  |  |  |  |  |  |  |  | 5F11-45-V11 (antibody, human IgG1, kappa, Control with enhanced selectivity for hCD32b) heavy: QVQLVQSGAEVKKPGSSVKVSCKASGYTFTDLSMHWVRQAPGQGLEWMGYITPSSGYTAYNQKFKGKTTLTADKSTSTAYMELSSLRSEDTAVYYCARLILQRGAYWGQGTLVTVSSASTKGPSVFPLAPSSKSTSGGTAALGCLVKDYFPEPVTVSWNSGALTSGVHTFPAVLQSSGLYSLSSVVTVPSSSLGTQTYICNVNHKPSNTKVDKRVEPKSCDKTHTCPPCPAPELLGDDSVFLFPPKPKDTLMISRTPEVTCVVVDVSDEDGEVKFNWYVDGVEVHNAKTKPREEQYNSTYRVVSVLTVLHQDWLNGKEYKCKVSNKALPRPIEKTISKAKGQPREPQVYTLPPSREEMTKNQVSLTCLVKGFYPSDIAVEWESNGQPENNYKTTPPVLDSDGSFFLYSKLTVDKSRWQQGNVFSCSVMHEALHNHYTQKSLSLSPGK light: DIVLTQSPDSLAVSLGERATINCRASKNVDSYGNSFMHWYQQKPGQPPKLLIYRASNLESGVPDRFSGSGSGTDFTLTISSLQAEDVAVYYCQQSNEDPLTFGQGTKLEIKRTVAAPSVFIFPPSDEQLKSGTASVVCLLNNFYPREAKVQWKVDNALQSGNSQESVTEQDSKDSTYSLSSTLTLSKADYEKHKVYACEVTHQGLSSPVTKSFNRGEC
8 |  | 6.6 | 0.00047 | 71000 | binds | binds |  | binds |  |  |  |  |  |  | 5F11-45-SE (antibody, human IgG1, kappa, also called S267E variant) heavy: not shown light: DIVLTQSPDSLAVSLGERATINCRASKNVDSYGNSFMHWYQQKPGQPPKLLIYRASNLESGVPDRFSGSGSGTDFTLTISSLQAEDVAVYYCQQSNEDPLTFGQGTKLEIKRTVAAPSVFIFPPSDEQLKSGTASVVCLLNNFYPREAKVQWKVDNALQSGNSQESVTEQDSKDSTYSLSSTLTLSKADYEKHKVYACEVTHQGLSSPVTKSFNRGEC
9 |  |  |  |  |  |  |  |  |  | 2.3 | 0.00023 | 100000 |  | binds | Y1238-CTza (antibody, human IgG1, kappa, Chimeric; also called chimeric Y1238 CTza) heavy: not shown light: DIVMTQSHKFMSTSVGDRVSITCKASQDVRTGVAWYQQKPGQSPKLLIYSASYRNTGVPDRFTGSRSGTDFTFTISSVQAEDLAVYYCQQHYSPPYTFGGGTKLEIKRTVAAPSVFIFPPSDEQLKSGTASVVCLLNNFYPREAKVQWKVDNALQSGNSQESVTEQDSKDSTYSLSSTLTLSKADYEKHKVYACEVTHQGLSSPVTKSFNRGEC
